Source: patent US8106004B2, “Methods of inhibiting tumor cell aggressiveness using the microenvironment of human embryonic stem cells” (Children's Memorial Hospital, priority 2006, dated 2012)

B1: rNodal: recombinant Nodal (R&D Systems), used at 100 ng/mL (protein, UniProt Q96S42 238-347, looked up)
Nodal homolog: HHLPDRSQLCRKVKFQVDFNLIGWGSWIIYPKQYNAYRCEGECPNPVGEEFHPTNHAYIQSLLKRYQPHRVPSTCCAPVKTKPLSMLYVDNGRVLLDHHKDMIVEECGCL
B2: rLeftyB: recombinant Lefty-B (protein, UniProt O00292 77-366, looked up)
Left-right determination …: RFSQSFREVAGRFLASEASTHLLVFGMEQRLPPNSELVQAVLRLFQEPVPKAALHRHGRLSPRSAQARVTVEWLRVRDDGSNRTSLIDSRLVSVHESGWKAFDVTEAVNFWQQLSRPRQPLLLQVSVQREHLGPLASGAHKLVRFASQGAPAGLGEPQLELHTLDLRDYGAQGDCDPEAPMTEGTRCCRQEMYIDLQGMKWAKNWVLEPPGFLAYECVGTCQQPPEALAFNWPFLGPRQCIASETASLPMIVSIKEGGRTRPQVVSLPNMRVQKCSCASDGALVPRRLQP

Tests used:
Assay type in all cases: cell-based, human
[1] = tested on: C8161 cells; assay: Soft agar / anchorage independent growth assay, C8161 cells; conditions: for rescue of inhibition of in vitro clonogenicity: recombinant Nodal 100 ng/mL
Method: (§1) An in vitro colony forming assay was used to analyze colony-forming ability of poorly aggressive C81-61 cells, aggressive C8161 cells, C8161 cells treated with MO^Nodal and C8161 cells treated with MO^Nodal and rescued with recombinant Nodal (100 ng/mL). The assay was conducted using 50,000 cells suspended in 0.35% agarose in RPMI containing 10% serum, which were plated into 6-well dishes on 0.5% agar in the same medium. Colonies grew, and pictures were taken at day 7. After 2 weeks, colonies were stained with Crystal Violet and counted.
The derivation and phenotypic characteristics of the human melanoma cell lines have been previously described. Seftor, et. al., 2002, Clin. Experim. Metastas. 19:233-246; Seftor, et. al., 2005 Cancer Res. 65:10164-10169. The melanoma cell lines are maintained in RPMI 1640 medium (Invitrogen) supplemented with 10% fetal bovine serum (FBS, Gemini Bioproducts) and 0.1% gentamycin sulfate with the exception of C81-61 cells which are maintained in Ham's FIO medium supplemented with 15% FBS, 1X Mito+ (BD Bioscience) and gentamycin sulfate. Normal human melanocytes are purchased (Cascade Biologics) or isolated from neonatal foreskins. Seftor, et. al., 2005. A single cell suspension is prepared, added to plastic flasks for the adherence of melanocytes and the cells propagated in Medium 254 with Human Melanocyte Growth Supplement (Cascade Biologics) including, 100 units/ml penicillin, 100 μg/ml streptomycin, and 250 ng/mL amphotericin B. The human embryonic stem cell lines are cultured as previously described. Thomson, et. al., 1998, Science 282:1145-1147. Briefly, cells are grown in 6-well plates precoated with 0.1% porcine gelatin and containing 1.9×10^5 irradiated mouse embryonic fibroblasts (strain CF-1; ATCC) per well. The cells are maintained in medium containing DMEM/F12 (1:1), 20% knock-out serum replacement, non-essential minimal amino acids, L-glutamine (Invitrogen), […], and 4 ng/ml FGF-2 (R&D Systems), and are split with collagenase (1 mg/ml) before the colonies begin to overlap. The cultures are determined to be free of mycoplasma contamination using a PCR-based assay (Roche). The normal human neonatal epidermal melanocytes (HEMn-LP; Cascade Biologics, Portland Oreg.), myoepithelial cells (Hs 578 Bst; American Type Culture Collection (ATCC), Manassas, Va.) and primary mammary epithelial cells (HMEpC; Cell Applications Inc., San Diego Calif.) were maintained as per distributor instructions. Live umbilical cord blood stem cells (SC00125; New Jersey Stem Cell Resource at Coriell Institute for Medical Research) amniotic fluid derived stem cells (GM00473, GM00957A) and adult bone marrow derived mesenchymal stem cells (Stem Cell Technologies, Vancouver BC, Canada) were maintained under the recommended conditions. The HTR-8/SVneo is a well characterized immortalized human extravillous cytotrophoblast cell line, and was maintained as previously described Graham et al., 1993, Exp. Cell Res. 206:204-211. […] The expression vector for wild type Nodal was kindly provided by Dr. Daniel Constam (Swiss Institute for Experimental Cancer Research (ISREC), Epalinges, Switzerland) and was transfected into C81-61 cells as previously described. Le Good et al., 2005, Curr. Biol. 15:31-36. […]

[2] = tested on: MDA-MB-231 cells; assay: Soft agar / anchorage independent growth assay, MDA-MB-231 cells; conditions: recombinant Nodal 100 ng/mL
Method: The melanoma cell lines are maintained in RPMI 1640 medium (Invitrogen) supplemented with 10% fetal bovine serum (FBS, Gemini Bioproducts) and 0.1% gentamycin sulfate with the exception of C81-61 cells which are maintained in Ham's FIO medium supplemented with 15% FBS, 1X Mito+ (BD Bioscience) and gentamycin sulfate. Normal human melanocytes are purchased (Cascade Biologics) or isolated from neonatal foreskins. […] A single cell suspension is prepared, added to plastic flasks for the adherence of melanocytes and the cells propagated in Medium 254 with Human Melanocyte Growth Supplement (Cascade Biologics) including, 100 units/ml penicillin, 100 μg/ml streptomycin, and 250 ng/mL amphotericin B. The human embryonic stem cell lines are cultured as previously described. […] Briefly, cells are grown in 6-well plates precoated with 0.1% porcine gelatin and containing 1.9×10^5 irradiated mouse embryonic fibroblasts (strain CF-1; ATCC) per well. […] The cultures are determined to be free of mycoplasma contamination using a PCR-based assay (Roche). […] The conditioned matrix is then analyzed by 2-D LDS-PAGE and Western blot directly, or reseeded with melanoma cells and incubated for an additional 3 days. […]

[3] = tested on: C81-61 cells; assay: Soft agar colony forming assay, C81-61 cells; conditions: C81-61 cell line, rNodal
Method: as §1

[4] = tested on: Nodal; assay: Nodal expression in C8161 cells (Western blot, real time RT-PCR); conditions: C8161 exposed 48 hrs to 0-1000 ng/mL recombinant Lefty
Method: A determination of the effects of H9 CMTX on Nodal expression in metastatic melanoma (C8161) and breast carcinoma (MDA-MB-231) cells was undertaken. […] Exposure to H9 CMTX similarly abrogates Nodal mRNA expression in the melanoma and breast carcinoma cells (FIG. 9C).
Protein lysates were prepared and quantified as previously described in Hess et al., 2001, Cancer Res. 61:3250-3255. Equal amounts of protein were separated by SDS-polyacrylamide gel electrophoresis under reducing conditions, and the resolved proteins were transferred onto Immobilon-P membranes (Millipore Corp., Bedford, Mass.). Membranes were blocked in 1% TBS, 0.1% Tween 20 (TBS-T) and 5% dry milk powder or 3% gelatin (for Nodal Westerns). Blots were incubated with anti-Nodal or anti-Lefty antibodies (Polyclonal rabbit anti-Nodal (H-110) 1:500 Santa Cruz Biotechnology, Santa Cruz, Calif.; Polyclonal goat anti-Lefty 1:500 R&D Systems, Minneapolis, Minn.), washed in TBS-T, and incubated with the appropriate horseradish peroxidase-labeled secondary antibody. Secondary antibodies were detected by enhanced chemiluminescence (Super Signal; Pierce, Rockford, Ill.) and exposure to autoradiography film (Molecular Technologies, St Louis, Mo.). Nodal protein was detected as two major bands at ˜48 and ˜35 kDa representing precursor and pro-Nodal respectively. Nodal often appeared as multiple bands, likely due to degradation of protein modifications. All experiments were done at least three times.
The derivation and phenotypic characteristics of the human melanoma cell lines have been previously described. Seftor, et. al., 2002, Clin. Experim. Metastas. 19:233-246; Seftor, et. al., 2005 Cancer Res. 65:10164-10169. The melanoma cell lines are maintained in RPMI 1640 medium (Invitrogen) supplemented with 10% fetal bovine serum (FBS, Gemini Bioproducts) and 0.1% gentamycin sulfate with the exception of C81-61 cells which are maintained in Ham's FIO medium supplemented with 15% FBS, 1X Mito+ (BD Bioscience) and gentamycin sulfate. […] The cultures are determined to be free of mycoplasma contamination using a PCR-based assay (Roche). […]

Molecule | rescue of inhibition of in vitro clonogenicity ([1]; C8161 exposed to H9 CMTX) | rescue of inhibition of in vitro clonogenicity ([1]; C8161 exposed to H9 Lefty-containing matrix) | rescue of reduced colony formation ([1]; C8161 treated with MONodal, rNodal 100 ng/mL) | rescue of inhibition of in vitro clonogenicity ([2]; MDA-MB-231 exposed to H9 CMTX) | rescue of inhibition of in vitro clonogenicity ([2]; MDA-MB-231 exposed to H9 Lefty-containing matrix) | colony formation [3] | Nodal protein expression (Western blot) [4]
B1 | partially rescued | completely rescued | rescued | partially rescued | completely rescued | did not induce colony formation | 
B2 |  |  |  |  |  |  | can inhibit Nodal protein in C8161 cells, but at a higher doses than its hESC counterpart
